This note sets out measurements from doi:10.1101/2020.11.24.395475.

This data set has as its target ARTD2WGR-RD-ART (Homo sapiens, UniProt Q9UGN5 90-583). The data set can be described thus: X-ray crystallography.

ARTD2WGR-RD-ART, sequence (Q9UGN5 90-583): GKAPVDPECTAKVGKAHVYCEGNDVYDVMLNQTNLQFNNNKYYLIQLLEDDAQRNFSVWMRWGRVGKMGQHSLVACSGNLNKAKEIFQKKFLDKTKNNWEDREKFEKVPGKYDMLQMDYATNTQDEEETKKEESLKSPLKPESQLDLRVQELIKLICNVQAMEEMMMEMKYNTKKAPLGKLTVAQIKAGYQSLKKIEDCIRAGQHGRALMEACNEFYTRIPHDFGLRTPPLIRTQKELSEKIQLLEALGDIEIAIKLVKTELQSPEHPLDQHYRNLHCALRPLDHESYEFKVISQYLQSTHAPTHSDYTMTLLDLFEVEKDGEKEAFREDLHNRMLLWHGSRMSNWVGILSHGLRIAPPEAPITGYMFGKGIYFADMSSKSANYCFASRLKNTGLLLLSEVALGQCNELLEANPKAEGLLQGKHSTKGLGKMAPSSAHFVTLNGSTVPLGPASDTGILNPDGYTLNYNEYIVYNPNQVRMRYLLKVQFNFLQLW

B1: DNA-1 (dsDNA)
DNA 1: GACGACCCGGAGCACA
DNA 2: TGTGCTCCGGGTCGTC
modifications: 5'-phosphate on forward strand
With B1, the binding result was “binds”.
